US20200087383A1 (NATIONAL CHENG KUNG UNIVERSITY, published 2020)

Columns and labels:
[1] = target: T1, antigen comprising the amino acid sequence YKDWSEWGKAC (SEQ ID NO: 12); test: ELISA of hybridoma supernatants on the antigen comprising SEQ ID NO: 12
T1 construct: Any carrier or conjugate is not described; also called screening antigen
T1 peptide: YKDWSEWGKAC

[2] = target: bovine serum albumin (BSA) (bovine, UniProt P02769 25-607); test: western blotting
Sequence of bovine serum albumin (BSA) (P02769 25-607 limits assumed): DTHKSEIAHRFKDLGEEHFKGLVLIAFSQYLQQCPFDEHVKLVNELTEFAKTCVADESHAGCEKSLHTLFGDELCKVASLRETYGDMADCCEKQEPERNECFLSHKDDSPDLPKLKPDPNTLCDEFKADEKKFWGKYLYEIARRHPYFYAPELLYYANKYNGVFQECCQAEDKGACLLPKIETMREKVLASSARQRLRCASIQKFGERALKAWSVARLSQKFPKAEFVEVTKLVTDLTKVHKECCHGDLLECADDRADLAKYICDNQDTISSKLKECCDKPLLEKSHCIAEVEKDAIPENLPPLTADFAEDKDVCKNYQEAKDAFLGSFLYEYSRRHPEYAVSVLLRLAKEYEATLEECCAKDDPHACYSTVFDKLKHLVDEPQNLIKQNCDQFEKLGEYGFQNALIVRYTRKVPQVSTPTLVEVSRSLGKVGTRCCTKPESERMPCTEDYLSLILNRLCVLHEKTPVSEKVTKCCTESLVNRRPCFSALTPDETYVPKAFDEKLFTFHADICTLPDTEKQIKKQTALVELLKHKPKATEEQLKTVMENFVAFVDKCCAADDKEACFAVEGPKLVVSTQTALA

B1: anti-DENV NS1 monoclonal antibody mAb 33D2 (antibody, V domains shown)
VH: DVQLQESGPGLVKPSQSLSLTCTVTGYSITSDYAWNWIRQFPGNKLEWMGFISYSGSARYNPSLISRTSITRDTSKNQFFLHLNSVTTEDTAIYYCARVERLGYFDVWGAGTTVTVSS
VL: DIVLTQSPASLAVSLGQRASISCKASQSVDYDGDSYMHWYQQKPGQPFKLLIYAASNLESGIPARFSGSGSGTVFTLNIHPVEEEDAATYYCQQSNEDPTFGGGTRLEIKR
notes: also called anti-NS1 mAb 33D2; anti-DENV antibody 33D2
binding result [1]: binds
binding result [2]: no binding
